Test results from patent publication US20140221623A1 (Ablynx, published 2014).
Where a chain is given by its changes, count along the chain named. Values joined by “and” are separate entries in the source; they are usually repeats but may differ in a detail not shown here. Equal entries are not always repeated.

Legend:
[1] = target: T1, Human soluble IL6-R (human, UniProt P08887 20-358); test: SPR (Biacore), off-rate
T1 construct: Bought soluble receptor; biotinylated in some Alphascreen assays; also called sIL6-R; hIL-6R
T1 sequence (looked up): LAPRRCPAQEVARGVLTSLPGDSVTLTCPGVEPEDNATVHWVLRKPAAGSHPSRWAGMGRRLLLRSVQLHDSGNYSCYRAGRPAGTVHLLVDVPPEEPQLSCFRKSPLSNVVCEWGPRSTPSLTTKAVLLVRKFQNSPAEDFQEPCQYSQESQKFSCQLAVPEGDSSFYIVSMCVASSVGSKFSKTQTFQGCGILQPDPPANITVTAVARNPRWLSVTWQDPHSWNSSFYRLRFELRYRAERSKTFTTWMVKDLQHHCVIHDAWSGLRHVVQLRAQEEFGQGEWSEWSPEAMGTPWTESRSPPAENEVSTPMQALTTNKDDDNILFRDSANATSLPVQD

[2] = target: T1, Human soluble IL6-R; test: Alphascreen, 100 nM Nanobody; competitor Reference-Fab on beads
[3] = target: T1, Human soluble IL6-R; test: SPR (Biacore 3000), IL6-R on CM5 chip
[4] = target: T2, IL6-R on U266 cells (human, UniProt P08887 20-468); test: cell-based or functional assay
T2 sequence (looked up): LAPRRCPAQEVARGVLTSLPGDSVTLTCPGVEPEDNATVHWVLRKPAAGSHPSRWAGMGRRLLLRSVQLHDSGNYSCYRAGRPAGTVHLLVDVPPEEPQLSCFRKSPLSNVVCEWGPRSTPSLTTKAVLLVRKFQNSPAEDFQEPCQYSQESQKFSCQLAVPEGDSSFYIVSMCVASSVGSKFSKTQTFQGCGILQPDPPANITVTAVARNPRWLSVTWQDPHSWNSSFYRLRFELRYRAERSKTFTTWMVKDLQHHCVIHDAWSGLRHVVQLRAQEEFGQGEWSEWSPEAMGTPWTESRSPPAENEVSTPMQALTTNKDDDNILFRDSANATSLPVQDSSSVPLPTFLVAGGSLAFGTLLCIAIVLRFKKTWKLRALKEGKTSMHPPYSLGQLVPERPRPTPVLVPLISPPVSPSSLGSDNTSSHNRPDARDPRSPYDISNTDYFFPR

[5] = target: T2, IL6-R on U266 cells; test: cell-based or functional assay; remark: listed apart in the source

B1: PMP 28 G3 (VHH)
VHH: EVQLVESGGGLVQAGGSLRLSCTASGNIFSTETMGWYRQPPGKQRDVVATITHGGTTNYADSVKGRFTISRDNRKNTVYLQMNSLKPEDTGVYYCNARSSWYSPEYWGQGTQVTVSS
koff [1]: 0.00193 s⁻¹

B2: PMP 34 C11 (VHH)
VHH: EVQLVESGGGLVQPGGSLRLSCAAAGFTLDYSAIGWFRQAPGKEREMFSCISGSDGSTWYADSVAGRFTISFDNAKNTVYLQMNSLKPEDTGLYICAVTGGVRGPCAYEYEYWGQGTQVTVSS
koff [1]: 0.00367 s⁻¹

B3: PMP 28 C7 (VHH)
VHH: EVQLVESGGGLVQPGGSLRLSCAASGFTFGSYDMSWVRQAPGKGPEWVSAINSGGDNTYYADSVKGRFTISRDNAKNTLYLQMNSLKPEDTAVYYCATDWRYSDYDLPLPPPGDYWGQGTQVTVSS
notes: also called PMP28C7(t)
koff [1]: 0.00131 s⁻¹

B4: PMP 32 H5 (VHH)
VHH: B3 VHH with D56G, N57S
notes: also called PMP32H5(t)
koff [1]: 0.00128 s⁻¹

B5: PMP 28 D4 (VHH)
VHH: B3 VHH with D56G, N57S
notes: also called PMP28D4(t)
koff [1]: 0.00185 s⁻¹

B6: PMP 31 F4 (VHH)
VHH: B3 VHH with D56G, N57S
notes: also called PMP31F4(t)
koff [1]: 0.00123 s⁻¹

B7: PMP 31 B4 (VHH)
VHH: B3 VHH with D56G, N57S
notes: also called PMP31B4(t)
koff [1]: 0.00128 s⁻¹

B8: PMP 31 B11 (VHH)
VHH: B3 VHH with D56G, N57S
notes: also called PMP31B11(t)
koff [1]: 0.00124 s⁻¹

B9: PMP 31 C8 (VHH)
VHH: B3 VHH with D56G, N57S
notes: also called PMP31C8(t)
koff [1]: 0.00125 s⁻¹

B10: PMP 28 F7 (VHH)
VHH: B3 VHH with D56G, N57S
notes: also called PMP28F7(t)
koff [1]: 0.00126 s⁻¹

B11: PMP 28 H6 (VHH)
VHH: B3 VHH with D56G, N57S
notes: also called PMP28H6(t)
koff [1]: 0.00247 s⁻¹

B12: IL6R01 (VHH)
VHH: EVQLVESGGGFVQAGGSLRLSCIASGDNFSINRMGWYRQALGKQRELVAIITNHGSTNYADAVKGRFTISRDYAKNTVYLQMNGLKPDDTAVYYCNAYISEVGTWRDDYWGQGIQVTVSS
notes: also called PMP28E11; PMP 28 E11
% binding retained in competition with Reference-Fab [2]: 49%
Kd [3]: 0.418 nM
koff [3]: 0.00011 s⁻¹
kon [3]: 262000 M⁻¹ s⁻¹

B13: PMP 34 D2 (VHH)
VHH: EVQLVESGGGLVQPGGSLRLSCAASGFTLDYFAIGWFRQAPGKERERVSCISSSDGSTYYADSVKGRFTISRDNAKNTVYLQMNSLKPEDTAVYYCATDRSVYYCSGGAPEEYYWGQGTQVTVSS
notes: also called PMP34D2(t)
koff [1]: 0.000331 s⁻¹

B14: PMP 34 A5 (VHH)
VHH: B13 VHH with D30G, R47G, I70V
notes: also called PMP34A5(t)
koff [1]: 0.00168 s⁻¹

B15: PMP 34 G3 (VHH)
VHH: B13 VHH with F32Y, V93A
koff [1]: 0.00014 s⁻¹

B16: PMP 34 E9 (VHH)
VHH: B13 VHH with F32Y, R47G, V93A, G108D
notes: also called PMP34E9(t)
koff [1]: 0.000503 s⁻¹

B17: PMP 33 G3 (VHH)
VHH: B13 VHH with D30G, R47G, T58A, I70V
notes: also called PMP33G3(t)
koff [1]: 0.00119 s⁻¹

B18: PMP 30 B1 (VHH)
VHH: B13 VHH with F32Y, F37W, E44G, R47G, S54G, Y59N
notes: also called PMP30B1(t)
koff [1]: 0.001 s⁻¹

B19: IL6R08 (VHH)
VHH: EVQLVESGGGLVQPGGSLRLSCVASGFSLDYYVIGWFRQAPGKEREGVSCISSSDGSTYYADSVKGRFTISRDNAKNTVYLQMNSLKPEDTAVYYCAADLLRTPEFCVDSAPYDYWGQGTQVTVSS
notes: also called PMP34A12; PMP 34 A12
IC50, XG-1 proliferation [4]: 36.6 nM
IC50, TF-1 proliferation [5]: 42.9 nM
% binding retained in competition with Reference-Fab [2]: 99%
Kd [3]: 10.2 nM
koff [3]: 0.00197 s⁻¹
kon [3]: 194000 M⁻¹ s⁻¹

B20: PMP 30 G11 (VHH)
VHH: B19 VHH
notes: also called PMP30G11(t)
koff [1]: 0.00164 s⁻¹

B21: PMP 34 C3 (VHH)
VHH: B19 VHH with Q118R
notes: also called PMP34C3(t)
koff [1]: 0.000435 s⁻¹

B22: PMP 30 A2 (VHH)
VHH: B19 VHH with V23A, S28T, S52G, G56D, V108T
notes: also called PMP30A2(t)
koff [1]: 0.00257 s⁻¹

B23: PMP 30 B6 (VHH)
VHH: B19 VHH with V23A, S28T, G47A, S49A, G56R, V79G, V108S
notes: also called PMP30B6(t)
koff [1]: 0.000842 s⁻¹

B24: IL6R02 (VHH)
VHH: EVQLVESGGGLVQAGGSLRLSCAASGRTFSSYDMGWYRQAPGKEREFVAVISRSGSSTYYADSVKGRFTISRDNAKNTVYLQMNSLKPEDTAIYYCKAEVVAGDYDYWGQGTQVTVSS
notes: also called PMP30C11; PMP 30 C11
IC50, XG-1 proliferation [4]: 31 nM
IC50, TF-1 proliferation [5]: 29.7 nM
koff [1]: 0.00294 s⁻¹
% binding retained in competition with Reference-Fab [2]: 86%
Kd [3]: 5.9 nM
koff [3]: 0.00294 s⁻¹ and 0.00495 s⁻¹
kon [3]: 840000 M⁻¹ s⁻¹

B25: PMP 34 E10 (VHH)
VHH: EVQLVESGGGLVQAGGSLRLSCAASGRTFSSYAMGWGRQAPGKEREFVATISWSGGSTYYADSVKGRFTISRDNAKNTVYLQMNSLKPEDTAVYYCAADLAEFKYSDYADYWGQGTQVTVSS
koff [1]: 0.002 s⁻¹

B26: IL6R11 (VHH)
VHH: EVQLVESGGGLVQAGGSLRLSCAASGFTFDDYAIGWFRQAPGKEHEGVSCISSSDGSTYYADSVKGRFTISSDNAKNTVYLQMNSLKPEDTAVYYCAAERDVPARSLCGSYYWYDYRGQGTQVTVSS
notes: also called PMP35E11; PMP 35 E11
IC50, XG-1 proliferation [4]: 5.37 nM
IC50, TF-1 proliferation [5]: 6.62 nM
koff [1]: 0.000417 s⁻¹
% binding retained in competition with Reference-Fab [2]: 40%
Kd [3]: 0.87 nM and 1.85 nM
koff [3]: 0.00034 s⁻¹ and 0.000396 s⁻¹ and 0.000417 s⁻¹
kon [3]: 391000 M⁻¹ s⁻¹ and 215000 M⁻¹ s⁻¹

B27: PMP 28 B1 (VHH)
VHH: EVQLVESGGGLVQPGGSLRLSCAASGFTLNYYAIGWFRQAPGKEREGVSCISSSDGSTYYADSVKGRFTISRDNAKNTFYLQMNSLKPEDTAVYYCAAEGLGDSDSPCGAAWYNDYWGQGTQVTVSS
notes: also called PMP28B1(t)
koff [1]: 0.00134 s⁻¹

B28: IL6R12 (VHH)
VHH: EVQLVESGGGLVQAGGSLRLSCAASGRTFSSYDMGWYRQAPGKEREFVAIITWNSSTYYADSVKGRFTISRDNAKNTVYLQMNSLKPEDTAIYYCNAQYGLGYAEDYWGQGTQVTVSS
notes: also called PMP35F4; PMP 35 F4
IC50, XG-1 proliferation [4]: 2.75 nM
IC50, TF-1 proliferation [5]: 6.92 nM
koff [1]: 0.000896 s⁻¹
% binding retained in competition with Reference-Fab [2]: 103%
Kd [3]: 1.71 nM
koff [3]: 0.00116 s⁻¹ and 0.000896 s⁻¹
kon [3]: 678000 M⁻¹ s⁻¹

B29: Reference Fab (Fab, V domains shown)
VH: QVQLQESGPGLVRPSQTLSLTCTVSGYSITSDHAWSWVRQPPGRGLEWIGYISYSGITTYNPSLKSRVTMLRDTSKNQFSLRLSSVTAADTAVYYCARSLARTTAMDYWGQGSLVTVSS
VL: DIQMTQSPSSLSASVGDRVTITCRASQDISSYLNWYQQKPGKAPKLLIYYTSRLHSGVPSRFSGSGSGTDFTFTISSLQPEDIATYYCQQGNTLPYTFGQGTKVEIKR
notes: Anti-human IL-6R Fab according to EP 0 628 639, made in E. coli periplasm; also called Tocilizumab-Fab
IC50, XG-1 proliferation [4]: 5.99 nM
Kd [3]: 0.86 nM
koff [3]: 0.00066 s⁻¹
kon [3]: 768000 M⁻¹ s⁻¹
